Test results taken from article PMC9616786 (Cellular and Molecular Life Sciences, 2022).
Where no end group is shown, it is not given here. The star is where a group is joined. Biotin = O=C1N[C@H]2[C@H](CS[C@H]2CCCCC(=O)*)N1

Target: T1, Calmodulin from bovine brain (bovine, UniProt P62157 1-149)
T1 construct: calmodulin, bovine, purified from brain; also called purified bovine brain CaM; CaM; source: bought: Sigma-Aldrich Cat#208694, purified from bovine brain
Test: SPR; Biacore 3000, 25 °C; biotinylated peptides captured on a streptavidin chip; CaM injected at 13.2 nM to 9.6 µM; HBSP (10 mM HEPES pH 7.4, 150 mM NaCl, 0.005% P20) with 1 mM CaCl2; equilibrium analysis, apparent KD
Conditions: both partners purified

B1: Peptide INF2 2-19 L14L18A, biotinylated (for surface plasmon resonance) (peptide)
peptide: K(Biotin)GGSVKEGAQRKWAAAKEKAG
notes: added N-terminal K (biotinylated) and two G residues as spacer; INF2, human, amino acids 2-19 with L14A and L18A; also called double L14L18A 2-19 peptide mutant; source: synthetic peptide (Proteomics Facility, CNB, CSIC), HPLC purified
  binding result: binds
